Laboratory results: patent publication US20180355009A1
Several values for one entry are separate records, joined by “and”; a condition that tells them apart may be missing. Equal values may be shown once.

Target: human IL-22 receptor complex IL22R1 and IL10R2, overexpressed on HEK 293 cells (human) (UniProt Q8N6P7)
Assay: cell-based or functional assay

human IL-22 receptor complex IL22R1 and IL10R2, overexpressed on HEK 293 cells (human), sequence (Q8N6P7 16-574, chain 1 of 2): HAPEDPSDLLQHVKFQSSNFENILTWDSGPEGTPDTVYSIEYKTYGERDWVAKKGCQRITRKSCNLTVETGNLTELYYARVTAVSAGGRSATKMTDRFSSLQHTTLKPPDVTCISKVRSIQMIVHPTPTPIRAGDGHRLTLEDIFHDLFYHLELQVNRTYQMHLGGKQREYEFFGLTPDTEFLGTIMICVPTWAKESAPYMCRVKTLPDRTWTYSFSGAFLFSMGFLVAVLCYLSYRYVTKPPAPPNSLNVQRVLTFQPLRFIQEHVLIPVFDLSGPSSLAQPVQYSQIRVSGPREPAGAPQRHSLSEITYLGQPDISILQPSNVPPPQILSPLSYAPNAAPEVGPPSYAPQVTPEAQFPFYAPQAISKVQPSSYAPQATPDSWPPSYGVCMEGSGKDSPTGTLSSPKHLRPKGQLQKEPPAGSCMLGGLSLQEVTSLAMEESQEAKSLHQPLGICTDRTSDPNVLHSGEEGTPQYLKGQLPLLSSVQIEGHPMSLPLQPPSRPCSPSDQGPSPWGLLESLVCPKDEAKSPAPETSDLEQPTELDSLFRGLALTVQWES
human IL-22 receptor complex IL22R1 and IL10R2, overexpressed on HEK 293 cells (human), sequence (Q08334 20-325, chain 2 of 2, further chain): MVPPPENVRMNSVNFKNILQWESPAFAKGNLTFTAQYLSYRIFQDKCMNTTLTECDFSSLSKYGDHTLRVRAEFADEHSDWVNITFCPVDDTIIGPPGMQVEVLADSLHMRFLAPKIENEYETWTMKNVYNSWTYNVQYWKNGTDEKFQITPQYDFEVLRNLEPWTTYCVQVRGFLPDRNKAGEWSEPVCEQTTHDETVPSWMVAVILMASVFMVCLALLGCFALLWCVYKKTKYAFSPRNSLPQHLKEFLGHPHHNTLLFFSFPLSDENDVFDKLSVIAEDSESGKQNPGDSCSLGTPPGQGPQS

native IL-22 protein produced in CHO cells (from UniProt Q9GZX6 34-179) (ligand)
potency in the STAT3 luciferase reporter assay, against the IL-22 Fc fusion proteins: 2 fold and 3 fold
